Reference: IntAct's records for PubMed 29039417

B1: Protein PTHB1 (Homo sapiens), Q3SYG4 (parent)
chain: MSLFKARDWWSTILGDKEEFDQGCLCLANVDNSGNGQDKIIVGSFMGYLRIFSPHPAKTGDGAQAEDLLLEVDLRDPVLQVEVGKFVSGTEMLHLAVLHSRKLCVYSVSGTLGNVEHGNQCQMKLMYEHNLQRTACNMTYGSFGGVKGRDLICIQSMDGMLMVFEQESYAFGRFLPGFLLPGPLAYSSRTDSFLTVSSCQQVESYKYQVLAFATDADKRQETEQQKLGSGKRLVVDWTLNIGEQALDICIVSFNQSASSVFVLGERNFFCLKDNGQIRFMKKLDWSPSCFLPYCSVSEGTINTLIGNHNNMLHIYQDVTLKWATQLPHIPVAVRVGCLHDLKGVIVTLSDDGHLQCSYLGTDPSLFQAPNVQSRELNYDELDVEMKELQKIIKDVNKSQGVWPMTEREDDLNVSVVVSPNFDSVSQATDVEVGTDLVPSVTVKVTLQNRVILQKAKLSVYVQPPLELTCDQFTFEFMTPDLTRTVSFSVYLKRSYTPSELEGNAVVSYSRPTDRNPDGIPRVIQCKFRLPLKLICLPGQPSKTASHKITIDTNKSPVSLLSLFPGFASQSDDDQVNVMGFHFLGGARITVLASKTSQRYRIQSEQFEDLWLITNELILRLQEYFEKQGVKDFACSFSGSIPLQEYFELIDHHFELRINGEKLEELLSERAVQFRAIQRRLLARFKDKTPAPLQHLDTLLDGTYKQVIALADAVEENQGNLFQSFTRLKSATHLVILLIALWQKLSADQVAILEAAFLPLQEDTQELGWEETVDAAISHLLKTCLSKSSKEQALNLNSQLNIPKDTSQLKKHITLLCDRLSKGGRLCLSTDAAAPQTMVMPGGCTTIPESDLEERSVEQDSTELFTNHRHLTAETPRPEVSPLQGVSE
partner: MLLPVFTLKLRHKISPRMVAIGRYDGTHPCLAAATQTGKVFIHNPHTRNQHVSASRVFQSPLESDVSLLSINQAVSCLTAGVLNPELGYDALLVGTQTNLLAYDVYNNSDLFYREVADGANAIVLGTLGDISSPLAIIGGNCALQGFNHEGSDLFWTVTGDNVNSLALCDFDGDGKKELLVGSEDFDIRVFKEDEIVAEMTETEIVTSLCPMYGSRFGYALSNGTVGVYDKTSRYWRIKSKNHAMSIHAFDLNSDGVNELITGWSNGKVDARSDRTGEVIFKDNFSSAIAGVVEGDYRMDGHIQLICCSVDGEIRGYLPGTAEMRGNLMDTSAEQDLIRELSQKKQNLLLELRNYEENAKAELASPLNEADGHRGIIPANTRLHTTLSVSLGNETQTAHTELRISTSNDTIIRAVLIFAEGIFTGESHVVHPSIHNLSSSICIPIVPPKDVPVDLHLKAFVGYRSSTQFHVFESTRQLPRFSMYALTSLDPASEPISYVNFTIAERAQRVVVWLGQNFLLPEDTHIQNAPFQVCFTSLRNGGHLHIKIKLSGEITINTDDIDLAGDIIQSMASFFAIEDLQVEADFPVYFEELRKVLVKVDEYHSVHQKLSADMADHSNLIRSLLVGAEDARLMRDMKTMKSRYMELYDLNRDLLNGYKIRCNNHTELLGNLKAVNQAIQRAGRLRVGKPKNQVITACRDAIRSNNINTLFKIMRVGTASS

Variants of: B1
Settings: with bbs2_human BBS2, Q9BXC9

Variant | effect of a mutation on the interaction
S541A | with no effect
S541K | with no effect
S541E | with no effect
F527K | with no effect
F527E | with no effect
F527A | with no effect
S555A | with no effect
S555K | with no effect
S555E | with no effect
P564A | with no effect
P564E | with no effect
P564K | with no effect
P556E | with no effect
P556A | with no effect
P556Q | disrupting interaction strength
P556K | with no effect
F563K | with no effect
F563E | with no effect
F563A | with no effect
G538K | with no effect
G538E | with no effect
G538A | with no effect
C525A | with no effect

Variant | effect of a mutation on the interaction
C525E | with no effect
C525K | with no effect
K542E | with no effect
K542A | with no effect
V577K | with no effect
V577A | with no effect
V577E | with no effect
T543E | with no effect
T543K | with no effect
T543A | with no effect
Q539K | with no effect
Q539E | with no effect
Q539A | with no effect
Q574L | disrupting interaction strength
Q574E | with no effect
Q574K | with no effect
Q574A | with no effect
N576A | with no effect
N576E | with no effect
N576K | with no effect
S568A | with no effect
S568K | with no effect
S568E | with no effect

Variant | effect of a mutation on the interaction
D573E | with no effect
D573A | with no effect
D573K | with no effect
L529A | with no effect
L529K | with no effect
L529E | with no effect
R528E | with no effect
R528A | with no effect
R528K | with no effect
K532E | with no effect
K532A | with no effect
Q569K | with no effect
Q569A | with no effect
Q569E | with no effect
S545K | with no effect
S545A | with no effect
S545E | with no effect
I534A | with no effect
I534K | with no effect
I534E | with no effect
P540E | with no effect
P540A | with no effect
P540K | with no effect

Variant | effect of a mutation on the interaction
L559K | with no effect
L559R | disrupting interaction strength
L559E | with no effect
L559A | with no effect
N553T | disrupting interaction strength
N553E | with no effect
N553A | with no effect
N553K | with no effect
Q524A | with no effect
Q524K | with no effect
Q524E | with no effect
D572A | with no effect
D572K | with no effect
D572E | with no effect
K554A | with no effect
K554E | with no effect
K554S | disrupting interaction strength
P537E | with no effect
P537A | with no effect
P537K | with no effect
I548K | with no effect
I548E | with no effect
I548A | with no effect

Variant | effect of a mutation on the interaction
H546E | with no effect
H546K | with no effect
H546A | with no effect
L531K | with no effect
L531A | with no effect
L531E | with no effect
T549K | with no effect
T549A | with no effect
T549E | with no effect
G579K | with no effect
G579A | with no effect
G579E | with no effect
S561K | with no effect
S561E | with no effect
S561A | with no effect
L533K | with no effect
L533E | with no effect
L533A | with no effect
V575E | with no effect
V575K | with no effect
V575A | with no effect
K547E | with no effect
K547A | with no effect

Variant | effect of a mutation on the interaction
V557E | with no effect
V557K | with no effect
V557A | with no effect
R521A | with no effect
R521E | with no effect
R521T | disrupting interaction strength
R521K | with no effect
F566K | with no effect
F566A | with no effect
F566E | with no effect
L536E | with no effect
L536K | with no effect
L536A | with no effect
G565E | with no effect
G565K | with no effect
G565A | with no effect
G565R | disrupting interaction strength
F580K | with no effect
F580E | with no effect
F580A | with no effect
A567E | with no effect
A567K | with no effect
L562E | with no effect

Variant | effect of a mutation on the interaction
L562A | with no effect
L562K | with no effect
D551A | with no effect
D551E | with no effect
D551K | with no effect
A544E | with no effect
A544K | with no effect
T552K | with no effect
T552A | with no effect
T552E | with no effect
P520K | with no effect
D571A | with no effect
D571K | with no effect
D571E | with no effect
V522A | with no effect
V522K | with no effect
V522E | with no effect
M578A | with no effect
M578E | with no effect
M578K | disrupting interaction strength
K526E | with no effect
K526A | with no effect
I523K | with no effect

Variant | effect of a mutation on the interaction
I523A | with no effect
I523E | with no effect
S570E | with no effect
S570K | with no effect
S570A | with no effect
P530L | disrupting interaction strength
P530K | with no effect
P530E | with no effect
P530A | with no effect
L560E | with no effect
L560K | with no effect
L560A | with no effect
I550K | with no effect
I550E | with no effect
I550A | with no effect
S558A | with no effect
S558K | with no effect
S558N | disrupting interaction strength
S558E | with no effect
C535K | with no effect
C535E | with no effect
C535A | with no effect
